Assay results reported in US20250066490A1, “ANTI-CD70 ANTIBODIES, CONJUGATES THEREOF AND METHODS OF USING THE SAME” (ProfoundBio US Co., priority 2021, published 2025).
Like-named read-outs stand apart in the source and are kept apart here.

Experiments:
Raji cells = assay: Internalization time course, Raji; format: cell-based, human; settings: up to 4 hr, FIG. 13
Description: Four cell lines ([…]), Caki-1, Raji, MCF-7) were utilized in the internalization assay. Target (CD70) copy numbers were determined via the QIFIKIT (DAKO, K0078). Briefly, cells were labeled with a primary mouse monoclonal antibody against CD70. Cells, Set-up beads, Calibration beads (from the kit) were then labeled in parallel with a fluorescein-conjugated anti-mouse secondary antibody. The fluorescence is correlated with the number of bound primary antibody molecules on the cells and on the beads. Samples were subsequently analyzed on the flow cytometer and copy number determined based on the calibration curve (Table 11). For internalization assay, 3×10^5 cells were incubated at 4° C. for 30 min with 10 µg/ml 2E7 in FACS buffer (1×PBS containing 0.1% BSA). Cells were washed at 4° C. to remove unbound material and kept on ice or shifted to 37° C. for different lengths of time. At progressive timepoints ([…], 0.5, 1, 2, 3, 4 hr) cells were stained with PE-conjugated anti-human Fc for 30 min at 4° C. and analyzed by flow cytometry. Internalization rate were calculated by subtracting the mean fluorescence intensity (MFI) of cell surface-bound antibody at 37° C. at each time point from the MFI of cell surface-bound antibody at 4° C. at time 0, then divided by the MFI of the cell surface-bound antibody at 4° C. at time 0.

CD70 ECD = target: T1, CD70 ECD (Homo sapiens, UniProt P32970); assay: Biacore affinity measurement on immobilized CD70 ECD; format: binding
T1 sequence (P32970 39-193 limits assumed): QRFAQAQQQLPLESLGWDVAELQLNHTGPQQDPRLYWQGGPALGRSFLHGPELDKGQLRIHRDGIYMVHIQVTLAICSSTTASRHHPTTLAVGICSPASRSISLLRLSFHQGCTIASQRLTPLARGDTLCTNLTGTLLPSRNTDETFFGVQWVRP
Description: The immobilization of antigen CD70 ECD was performed at 25° C. with HBS-EP as the running buffer. Sensor chip surface of flow cells 1, 4 were activated by freshly mixed 50 mmol/L N-Hydroxy succinimide (NHS) and 200 mmol/L 1-ethyl-3-(3-dimethylaminopropyl) carbodiimide hydrochloride (EDC) for 420s (10 μL/min). Afterwards, CD70 antigen diluted in 10 mmol/L NaAC (pH 4.5) was injected into flow cell 4 to achieve conjugation of the appropriate Response Unit, while flow cell 1 was set as a blank. After the amine coupling reaction, the remaining active coupling sites on chip surface were blocked by 420s injection of 1 mol/L ethanolamine hydrochloride.
The assay was performed at 25° C. and the running buffer was HBS-EP. Diluted antibodies were injected over the surface of flow cells 1 and 4 during the association phase, followed by injecting running buffer as the dissociation phase. All the data were processed using Biacore T200 Evaluation software version 3.1. Flow cell 1 and a blank injection of buffer in each cycle were used as a double reference for Response Units subtraction. Kinetic data of the interaction between the antibodies and CD70 antigen were obtained through affinity measurement.

[1] = target: T2, human CD70 extra-cellular domain (ECD) (Homo sapiens, UniProt P32970); assay: Biolayer interferometry (BLI), human CD70; format: binding
T2 construct: human, rat, or mouse CD70 extra-cellular domain (ECD) linked to His tag; His tag; purchased ACRO systems
T2 sequence (P32970 39-193 limits assumed): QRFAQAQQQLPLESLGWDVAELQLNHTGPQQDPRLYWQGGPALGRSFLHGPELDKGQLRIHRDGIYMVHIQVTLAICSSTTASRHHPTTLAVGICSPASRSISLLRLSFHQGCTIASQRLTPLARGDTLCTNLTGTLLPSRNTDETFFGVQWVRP
Description: (§1) Recombinant proteins consisting of human, rat, or mouse CD70 extra-cellular domain (ECD) linked to His tag was purchased (from ACRO systems). 69A7 and 2E7 (20 nM) were immobilized on anti-human IgG Fc biosensor tips (ForteBio). Binding assays using one concentration (100 nM) of recombinant protein in solution were performed using Octet RED (ForteBio). Association time was set at 180s and dissociation time was set at 300s. Binding affinity was calculated using ForteBio Data Acquisition 6.3 software. Affinity was derived by fitting the kinetic data to a 1:1 Langmuir binding model utilizing global fitting algorithms. […] Binding assays for 2E7 using multiple dilutions (from 200 nM down to 3.13 nM) of species' recombinant CD70 ECD proteins in solution were also performed using the same method.

[2] = target: T3, mouse CD70 extra-cellular domain (ECD) (Mus musculus, UniProt O55237); assay: Biolayer interferometry (BLI), mouse CD70; format: binding; settings: for Response: *Response below range of quantification
T3 construct: human, rat, or mouse CD70 extra-cellular domain (ECD) linked to His tag; His tag; purchased ACRO systems
T3 sequence (O55237 45-195): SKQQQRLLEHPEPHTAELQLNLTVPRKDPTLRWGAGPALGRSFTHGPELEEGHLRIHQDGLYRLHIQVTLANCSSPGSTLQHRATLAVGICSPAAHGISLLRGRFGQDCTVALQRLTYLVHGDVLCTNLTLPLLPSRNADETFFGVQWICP
Description: as §1

[3] = system: CD70-negative cell line, MCF-7; assay: 2E7 binding by flow cytometry, MCF-7; settings: FIG. 12
Description: Binding activity of 2E7 or the isotype control with a target cell line (Raji) or a cell line (MCF-7) that has negligible level of CD70 expression were evaluated by flow cytometry (Beckman, Cytoflex). 3×10^5 cells per well were seeded on a 96-well V-bottomed plate and incubated with 100 μl of 2E7 in serial dilutions. After 30 min incubation at 4° C., cells were washed twice with PBS, stained with 100 μl of 1:200 diluted PE-conjugated anti-human Fc in FACS buffer (1×PBS containing 1% BSA), then incubated at 4° C. for 30 min. Cells were finally washed two times with PBS and analyzed by flow cytometric analysis.

[4] = Hu CD70 100 nM, one concentration

B1: 2E7: anti-CD70 antibody clone, VH SEQ 7 and VL SEQ 8; tested as scFv and full human IgG1/kappa (antibody, V domains shown)
VH: QVQLQESGPGLVKPSETLSLTCTVSGGSVSSDYYYWSWIRQPPGKGLEWLGYIYYSGSTNYNPSLKSRVTISVDTSKNQFSLKLRSVTTADTAVYYCARGDGDFLGVCFDYWGQGTLVTVSS
VL: EIVLTQSPATLSLSPGERATLSCRASQSVSSYLAWYQQKPGQAPRLLIFDASNRATGIPARFSGSGSGTDFTLTISSLEPEDFAVYYCQQRSNWPLTFGGGTKVEIK
modifications: Synthetic 2E7 VH amino acid sequence; Synthetic 2E7 VL amino acid sequence
notes: tested as scFv and full human IgG1/kappa
Raji cells
  internalization, time course: rapid internalization
CD70 ECD
  affinity to CD70 antigen, fold greater than the reference antibody h1F6: 2-3 fold
CD70 ECD; 25° C., CD70 immobilized
  Rmax (RU): 32.94 RU
  ka: 75400 M⁻¹ s⁻¹
  kd: 0.00106 s⁻¹
[1]; HU CD70 3.13 nM
  Response: 0.1732
[1]; HU CD70 6.25 nM
  Response: 0.2136
[1]; HU CD70 12.5 nM
  Response: 0.3519
[1]; HU CD70 25 nM
  Response: 0.5319
[1]; HU CD70 50 nM
  Response: 0.6227
[1]; HU CD70 100 nM, dilution series
  Response: 0.7695
[1]; HU CD70 200 nM
  Response: 0.825
[1]; HU CD70, multiple dilutions 200-3.13 nM, global fit
  ka: 314300 M⁻¹ s⁻¹
[1]; [4]
  Response: 0.5157
  ka: 365000 M⁻¹ s⁻¹
[1]; human CD70, multiple dilutions (200 nM down to 3.13 nM), read-out: KD
  Kd: 0.81 nM
[1]; human CD70, one concentration (100 nM), read-out: equilibrium dissociation constant (KD)
  Kd: 0.97 nM
[2]; MOUSE CD70 3.13 nM
  Response: *−6.014E−03
[2]; MOUSE CD70 6.25 nM
  Response: *−5.879E−03
[2]; MOUSE CD70 12.5 nM
  Response: *−1.516E−03
[2]; MOUSE CD70 25 nM
  Response: *−3.009E−03
[2]; MOUSE CD70 50 nM
  Response: *0.0063
[2]; MOUSE CD70 100 nM, dilution series
  Response: *0.0111
[2]; MOUSE CD70 200 nM
  Response: *0.0012
[2]; MOUSE CD70, multiple dilutions 200-3.13 nM, global fit, responses below range of quantification
  ka: 117000 M⁻¹ s⁻¹
[2]; MS CD70 100 nM, one concentration
  Response: *0.0045
[2]; MS CD70 100 nM, one concentration, response below range of quantification
  ka: 3250 M⁻¹ s⁻¹
[2]; multiple dilutions, Table 10
  cross-reactivity to mouse CD70: no cross-reactivity
[2]; one concentration (100 nM), Table 9
  cross-reactivity to mouse CD70: no cross-reactivity
[3]
  binding to MCF-7: no binding
